According to patent US20170037111A1, “Novel peptides and combination of peptides for use in immunotherapy against ovarian cancer and other cancers” (immatics biotechnologies GmbH, priority 2015, published 2017):

What follows are substances tested against HLA-A*02:01 (Homo sapiens, UniProt P04439, D140Y/D185E/D98H/E176V/E277Q/G131W/G231S/I119V/I121R/I166T/I218V/L300P/L318F/N151K/N90K/P208A/P217A/Q86G/Q94H/R138H/R169H/T345S) (assay: MHC binding assay (UV-ligand exchange, β2m ELISA, peptide exchange yield)). Conditions: MHC class I binding score; binding to HLA-A*02:01 ranged by peptide exchange yield (UV-ligand exchange, β2m ELISA).
Procedure, shortened: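 Peptide–HLA-A*02:01 complexes were formed by UV-mediated exchange of a UV-cleavable ligand for the test peptide. Exchange yield was measured by capturing complexes on streptavidin, detecting with HRP anti-β2m antibody (1 h, 37°C) and reading TMB absorbance at 450 nm.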

Peptide exchange, ″+++″ (≧50% = +++):
528 (SVAEGRALMSV; listed as Homo sapiens) [compound 528], 529 (LLADELITV; listed as Homo sapiens) [compound 529], 530 (VMYADIGGMDI; listed as Homo sapiens) [compound 530], 531 (YTLPIASSIRL; listed as Homo sapiens) [compound 531], 537 (TLAPGEVLRSV; listed as Homo sapiens) [compound 537], 539 (ALFDAQAQV; listed as Homo sapiens) [compound 539], 541 (SMLEPVPEL; listed as Homo sapiens) [compound 541], 542 (RVWDISTVSSV; listed as Homo sapiens) [compound 542], 543 (GLLPTPITQQASL; listed as Homo sapiens) [compound 543], 544 (LLWDVPAPSL; listed as Homo sapiens) [compound 544], 545 (LLADLLHNV; listed as Homo sapiens) [compound 545], 546 (VMIAGKVAVV; listed as Homo sapiens) [compound 546], 547 (TLDITPHTV; listed as Homo sapiens) [compound 547], 549 (AMLENASDIKL; listed as Homo sapiens) [compound 549], 550 (FLYDEIEAEVNL; listed as Homo sapiens) [compound 550], 551 (KLYESLLPFA; listed as Homo sapiens) [compound 551], 554 (LLMPSSEDLLL; listed as Homo sapiens) [compound 554], 555 (YVLEGLKSV; listed as Homo sapiens) [compound 555], 556 (FLTDLEDLTL; listed as Homo sapiens) [compound 556], 557 (KLYDDMIRL; listed as Homo sapiens) [compound 557], 558 (GLLENIPRV; listed as Homo sapiens) [compound 558], 560 (ALWDIETGQQTTT; listed as Homo sapiens) [compound 560], 561 (YLQLTQSEL; listed as Homo sapiens) [compound 561], 562 (YLEELPEKLKL; listed as Homo sapiens) [compound 562], 563 (WLLPYNGVTV; listed as Homo sapiens) [compound 563], 564 (TVTNAVVTV; listed as Homo sapiens) [compound 564], 567 (SLLPLDDIVRV; listed as Homo sapiens) [compound 567], 569 (KLVDRTWTL; listed as Homo sapiens) [compound 569], 571 (LLLTTIPQI; listed as Homo sapiens) [compound 571], 572 (ALADLIEKELSV; listed as Homo sapiens) [compound 572], 573 (ILVANAIVGV; listed as Homo sapiens) [compound 573], 575 (YLISQVEGHQV; listed as Homo sapiens) [compound 575], 577 (VMFEDGVLMRL; listed as Homo sapiens) [compound 577], 578 (FLDPGGPMMKL; listed as Homo sapiens) [compound 578], 582 (TLCDVILMV; listed as Homo sapiens) [compound 582], 583 (ILANDGVLLAA; listed as Homo sapiens) [compound 583], 584 (ALAEVAAMENV; listed as Homo sapiens) [compound 584], 586 (KLKPGDLVGV; listed as Homo sapiens) [compound 586], 587 (VMNDRLYAI; listed as Homo sapiens) [compound 587], 588 (SLLPLSHLV; listed as Homo sapiens) [compound 588], 589 (KLYPQLPAEI; listed as Homo sapiens) [compound 589], 591 (SMAELDIKL; listed as Homo sapiens) [compound 591], 592 (RLLSAAENFL; listed as Homo sapiens) [compound 592], 593 (GLPRFGIEMV; listed as Homo sapiens) [compound 593], 594 (IMLKGDNITL; listed as Homo sapiens) [compound 594], 595 (VLLSIYPRV; listed as Homo sapiens) [compound 595], 596 (ALLDQTKTLAESAL; listed as Homo sapiens) [compound 596], 597 (KLLEGQVIQL; listed as Homo sapiens) [compound 597], 598 (FLFPHSVLV; listed as Homo sapiens) [compound 598], 599 (YLLNDASLISV; listed as Homo sapiens) [compound 599], 600 (ALAAPDIVPAL; listed as Homo sapiens) [compound 600], 601 (SAFPFPVTV; listed as Homo sapiens) [compound 601], 604 (SILDRDDIFV; listed as Homo sapiens) [compound 604], 605 (KLYEAVPQL; listed as Homo sapiens) [compound 605], 606 (ALWETEVYI; listed as Homo sapiens) [compound 606], 607 (RLYSGISGLEL; listed as Homo sapiens) [compound 607], 608 (SLLSVSHAL; listed as Homo sapiens) [compound 608], 609 (ALWKQLLEL; listed as Homo sapiens) [compound 609], 610 (LLAPTPYIIGV; listed as Homo sapiens) [compound 610], 612 (YLYNEGLSV; listed as Homo sapiens) [compound 612]

Peptide exchange, ″++″ (≧20% = ++):
538 (LLLAHIIAL; listed as Homo sapiens) [compound 538], 548 (ALWENPESGEL; listed as Homo sapiens) [compound 548], 559 (VTVPPGPSL; listed as Homo sapiens) [compound 559], 565 (ALQETPTSV; listed as Homo sapiens) [compound 565], 566 (VIADGGIQNV; listed as Homo sapiens) [compound 566], 570 (ALANQIPTV; listed as Homo sapiens) [compound 570], 574 (YLLQEPPRTV; listed as Homo sapiens) [compound 574], 579 (NLMEMVAQL; listed as Homo sapiens) [compound 579], 580 (LLMENAERV; listed as Homo sapiens) [compound 580], 590 (SLIEKLWQT; listed as Homo sapiens) [compound 590]

Peptide exchange, ″++++″ (≧75% = ++++):
552 (GLLDLPFRVGV; listed as Homo sapiens) [compound 552], 553 (SLLNQDLHWSL; listed as Homo sapiens) [compound 553], 568 (TLYDIAHTPGV; listed as Homo sapiens) [compound 568], 576 (ILLNNSGQIKL; listed as Homo sapiens) [compound 576], 585 (ALWDLAADKQTL; listed as Homo sapiens) [compound 585], 602 (YLLEQIKLIEV; listed as Homo sapiens) [compound 602], 611 (YLLDDGTLVV; listed as Homo sapiens) [compound 611]
